From patent US20210032312A1 (Janssen / Centocor, published 2021)
Residue numbers refer to the chain shown, from its start. Values belong to the binder of their own block, whether it stands above or below them.

Assays:
In house human CD8A-Fc = biological target: T1, In house human CD8A-Fc (human, UniProt P01732 22-182, limits assumed); assay: SPR (ProteOn), captured hCD8A-Fc
T1 construct: Captured on goat anti-human Fc on a ProteOn GLC chip; also called hCD8A-Fc; recombinant human CD8 alpha; not shown: linker with flag (and polyhistidine) tag and Fc of human IgG1
T1 sequence (P01732 22-182 limits assumed): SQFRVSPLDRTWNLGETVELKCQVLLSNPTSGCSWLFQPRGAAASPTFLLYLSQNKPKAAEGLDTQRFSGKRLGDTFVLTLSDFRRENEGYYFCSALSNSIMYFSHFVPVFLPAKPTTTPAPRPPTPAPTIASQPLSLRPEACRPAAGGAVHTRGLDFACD

[1] = biological target: T2, cynomolgus monkey CD8A on primary cynomolgus monkey CD8+ T cells (cynomolgus monkey, UniProt P01732 23-235 (human entry)); assay: flow cytometry, cyno CD8+ T cells, 0.2 uM FN3
T2 construct: also called Cyno CD8alpha
T2 sequence (P01732 other isoform, or with tags, fused parts or gaps limits assumed): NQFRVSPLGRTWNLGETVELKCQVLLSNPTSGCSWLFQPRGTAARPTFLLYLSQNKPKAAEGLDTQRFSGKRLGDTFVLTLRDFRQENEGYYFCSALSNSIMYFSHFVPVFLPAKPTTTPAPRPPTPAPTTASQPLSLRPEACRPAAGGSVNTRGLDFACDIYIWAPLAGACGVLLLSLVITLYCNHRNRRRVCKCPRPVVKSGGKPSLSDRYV

[2] = biological target: T3, human CD8 alpha (CD8A) on primary human CD8+ T cells (human, UniProt P01732 22-235); assay: flow cytometry, human CD8+ T cells, 0.2 uM FN3
T3 construct: whole, on cells; also called hCD8A
T3 sequence (P01732 22-235): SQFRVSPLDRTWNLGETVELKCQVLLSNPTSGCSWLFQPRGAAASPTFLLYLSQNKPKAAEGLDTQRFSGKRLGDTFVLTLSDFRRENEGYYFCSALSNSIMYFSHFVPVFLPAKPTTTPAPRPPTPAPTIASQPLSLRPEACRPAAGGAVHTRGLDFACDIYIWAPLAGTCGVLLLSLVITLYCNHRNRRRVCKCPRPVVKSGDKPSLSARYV

[3] = biological target: T2, cynomolgus monkey CD8A on primary …; assay: flow cytometry, cyno CD8+ T cells, 2 uM FN3
[4] = biological target: T3, human CD8 alpha (CD8A) on primary human …; assay: flow cytometry, human CD8+ T cells, 2 uM FN3

B1: P282FR9P1361_E12 (designed binder)
chain: LPAPKNLVVSRVTEDSARLSWTAPDAAFDSLGITYWESPYAGEAIVLTVPGSERSYDLTGLKPGTEYGVFILGVKGGYPSAPLSAIFTT
notes: FN3 domain
koff (In house human CD8A-Fc): 0.00109 s⁻¹ | Cyno T-cell Binding 0.2 uM (MFI) [1]: 15100 MFI | Human T-cell Binding 0.2 uM (MFI) [2]: 1130 MFI | Cyno T-cell Binding 2 uM (MFI) [3]: 63500 MFI | Human T-cell Binding 2 uM (MFI) [4]: 15800 MFI

B2: P282FR9P1361_H5 (designed binder)
chain: LPAPKNLVVSRVTEDSARLSWTAPDAAFDSFDIWYAEYGYPGEAIVLTVPGSERSYDLTGLKPGTEYDVAISGVKGGPRSYPLSAIFTT
notes: FN3 domain
koff (In house human CD8A-Fc): 0.00577 s⁻¹ | Cyno T-cell Binding 0.2 uM (MFI) [1]: 637 MFI | Human T-cell Binding 0.2 uM (MFI) [2]: 698 MFI | Cyno T-cell Binding 2 uM (MFI) [3]: 11800 MFI | Human T-cell Binding 2 uM (MFI) [4]: 5730 MFI

B3: P282FR9P1361_F2 (designed binder)
chain: B2 chain with V74I
notes: FN3 domain
koff (In house human CD8A-Fc): 0.00496 s⁻¹ | Cyno T-cell Binding 0.2 uM (MFI) [1]: 462 MFI | Human T-cell Binding 0.2 uM (MFI) [2]: 498 MFI | Cyno T-cell Binding 2 uM (MFI) [3]: 10900 MFI | Human T-cell Binding 2 uM (MFI) [4]: 4610 MFI

B6: P282FR9P1361_F11 (designed binder)
chain: B2 chain with D32G, A36R, Y40G, P41S, S72W, P78V
notes: FN3 domain
koff (In house human CD8A-Fc): 0.00213 s⁻¹ | Cyno T-cell Binding 0.2 uM (MFI) [1]: 384 MFI | Human T-cell Binding 0.2 uM (MFI) [2]: 382 MFI | Cyno T-cell Binding 2 uM (MFI) [3]: 2290 MFI | Human T-cell Binding 2 uM (MFI) [4]: 2190 MFI

B8: P282FR9P1361_F3 (designed binder)
chain: B2 chain with V74A
notes: FN3 domain
koff (In house human CD8A-Fc): 0.0107 s⁻¹ | Cyno T-cell Binding 0.2 uM (MFI) [1]: 513 MFI | Human T-cell Binding 0.2 uM (MFI) [2]: 674 MFI | Cyno T-cell Binding 2 uM (MFI) [3]: 9710 MFI | Human T-cell Binding 2 uM (MFI) [4]: 5160 MFI

B10: P282FR9P1361_A3 (designed binder)
chain: B2 chain with S72V, P78N
notes: FN3 domain
koff (In house human CD8A-Fc): 0.000757 s⁻¹ | Cyno T-cell Binding 0.2 uM (MFI) [1]: 740 MFI | Human T-cell Binding 0.2 uM (MFI) [2]: 1660 MFI | Cyno T-cell Binding 2 uM (MFI) [3]: 8480 MFI | Human T-cell Binding 2 uM (MFI) [4]: 7670 MFI

Next, values leading:

koff (In house human CD8A-Fc): 0.000317 s⁻¹ | Cyno T-cell Binding 0.2 uM (MFI) [1]: 2500 MFI | Human T-cell Binding 0.2 uM (MFI) [2]: 3740 MFI | Cyno T-cell Binding 2 uM (MFI) [3]: 26300 MFI | Human T-cell Binding 2 uM (MFI) [4]: 13100 MFI
B4: P282FR9P1361_H4 (designed binder)
chain: B2 chain with D32G, P41S, S72Y, P78S, R79P
notes: FN3 domain

koff (In house human CD8A-Fc): 0.00502 s⁻¹ | Cyno T-cell Binding 0.2 uM (MFI) [1]: 764 MFI | Human T-cell Binding 0.2 uM (MFI) [2]: 1030 MFI | Cyno T-cell Binding 2 uM (MFI) [3]: 14800 MFI | Human T-cell Binding 2 uM (MFI) [4]: 6880 MFI
B5: P282FR9P1361_D3 (designed binder)
chain: B2 chain with K62N
notes: FN3 domain

koff (In house human CD8A-Fc): 0.00224 s⁻¹ | Cyno T-cell Binding 0.2 uM (MFI) [1]: 896 MFI | Human T-cell Binding 0.2 uM (MFI) [2]: 1580 MFI | Cyno T-cell Binding 2 uM (MFI) [3]: 11600 MFI | Human T-cell Binding 2 uM (MFI) [4]: 8540 MFI
B7: P282FR9P1361_C7 (designed binder)
chain: B2 chain with D32G, A36H, Y40G, P41D, S72W, P78D, R79V
notes: FN3 domain

koff (In house human CD8A-Fc): 0.00126 s⁻¹ | Cyno T-cell Binding 0.2 uM (MFI) [1]: 1390 MFI | Human T-cell Binding 0.2 uM (MFI) [2]: 801 MFI | Cyno T-cell Binding 2 uM (MFI) [3]: 9870 MFI | Human T-cell Binding 2 uM (MFI) [4]: 5500 MFI
B9: P282FR9P1361_F1 (designed binder)
chain: B2 chain with D32G, P41S, S72W, P78V
notes: FN3 domain

koff (In house human CD8A-Fc): 0.000269 s⁻¹ | Cyno T-cell Binding 0.2 uM (MFI) [1]: 4540 MFI | Human T-cell Binding 0.2 uM (MFI) [2]: 3480 MFI | Cyno T-cell Binding 2 uM (MFI) [3]: 44600 MFI | Human T-cell Binding 2 uM (MFI) [4]: 15200 MFI
B11: P282ER9P1360_H2 (designed binder)
chain: LPAPKNLVVSRVTEDSARLSWTAPDAAFDSFSIAYVEAELVGEAIQLVVPGSERSYDLTGLKPGTEYWVVILGVKGGNPSNPLGASFTTT
notes: FN3 domain

koff (In house human CD8A-Fc): 0.00104 s⁻¹ | Cyno T-cell Binding 0.2 uM (MFI) [1]: 1890 MFI | Human T-cell Binding 0.2 uM (MFI) [2]: 506 MFI | Cyno T-cell Binding 2 uM (MFI) [3]: 27100 MFI | Human T-cell Binding 2 uM (MFI) [4]: 2510 MFI
B12: P282ER9P1360_H10 (designed binder)
chain: LPAPKNLVVSRVTEDSARLSWTAPDAAFDSFEIYYPEWPFAGEAIGLPVPGSERSYDLTGLKPGTEYFVVIYGVKGGELSEPLTAQFTT
notes: FN3 domain
